One molecule from doi:10.1101/2023.05.25.542299, “A Conserved Core Region of the Scaffold NEMO is Essential for Signal-induced Conformational Change and Liquid-liquid Phase Separation” (bioRxiv, 2023) can be followed below.

The Kd is a measure of binding affinity in units of concentration. Read a high Kd as a looser complex.

Data set [1] has as its target FITC-labeled 45-mer peptide derived from the C-terminal region of IKKβ (FITC label (position not given)). Kind of data set: fluorescence polarisation; fluorescence anisotropy binding assay with the FITC-labeled IKKβ 45-mer peptide and NEMO proteins; conditions not told (refs 13, 23). The following applies: both partners purified. Background: Fluorescence polarisation rises when a labelled molecule tumbles more slowly, as on binding a larger partner.

Data set [2] has as its target 45-mer peptide of IKKβ (as used in the CD experiments). In words: circular dichroism (spectra and thermal denaturation with and without ligand); 10 µM NEMO protein with or without equimolar IKKβ 45-mer peptide, incubated 1 h at room temperature; 20 mM sodium phosphate, 500 mM NaCl, pH 7.4; spectra at 25 °C, melt 10 to 70 °C at 222 nm. The following applies: both partners purified. A general note: CD spectra are sensitive to the conformation of chiral molecules.

B1: 7XAla-NEMO (aa 1–419), bacterially expressed (natural protein)
chain: MNRHLWKSQLAEMVQPSGGPAADQDVLGEESPLGKPAMLHLPSEQGAPETLQRALEENQELRDAIRQSNQILRERAEELLHFQASQREEKEFLMAKFQEARKLVERLGLEKLDLKRQKEQALREVEHLKRAQQQMAEDKASVKAQVTSLLGELQESQSRLEAATKEAQALEGRARAASEQARQLESEREALQQQHSVQVDQLRMQGQSVEAALRMERQAASEEKRKLAQLQVAYHQLFQEYDNHIKSSVVGSERKRGMQLEDLKQQLQQAEEALVAKQEVIDKLKEEAEQHKIVMETVPVLKAQADIYKADFQAERQAREKLAEKKELLQEQLEQLQREYSKLKASAQESARIEDMRKRHVEVSQAPLPPAPAYLSSPLALPSQRRSPPEEPPDFCCPKCQYQAPDMDTLQIHVMECIE
The molecule B1 registered a Kd in data set [1] of 13 ± 2.9 nM. The “increase in Tm with equimolar peptide” value in data set [2] worked out at 3 °C.
